Measurements from paper PMC314469, “Protein Interaction Networks by Proteome Peptide Scanning” (PLoS Biology, 2004).

Assays:
Assay in all cases: SPOT array
[1] = biological target: T1, Rvs167 SH3 (RV167_YEAST), P39743
T1 chain: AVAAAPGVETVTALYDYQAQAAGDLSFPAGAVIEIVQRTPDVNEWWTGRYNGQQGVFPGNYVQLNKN

[2] = biological target: T2, Boi2 SH3 (BOI2_YEAST), P39969
T2 chain: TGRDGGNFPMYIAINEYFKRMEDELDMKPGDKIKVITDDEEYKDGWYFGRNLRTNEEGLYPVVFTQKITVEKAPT

[3] = biological target: T3, Yfr024 SH3 (LSB3_YEAST), P43603
T3 chain: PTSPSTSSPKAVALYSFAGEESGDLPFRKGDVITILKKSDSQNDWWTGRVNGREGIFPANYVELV

[4] = biological target: T4, Boi1 SH3 (BOI1_YEAST), P38041
T4 chain: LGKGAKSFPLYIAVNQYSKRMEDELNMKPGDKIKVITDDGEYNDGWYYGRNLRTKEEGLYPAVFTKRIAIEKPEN

[5] = biological target: T5, Yhr016c SH3 (YSC84_YEAST), P32793
T5 chain: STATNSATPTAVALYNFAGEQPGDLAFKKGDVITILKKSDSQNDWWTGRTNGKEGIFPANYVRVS

Binder | normalised SPOT signal, Boehringer light units (BLU); mean over the file's lines of this peptide [1] | normalised SPOT signal, Boehringer light units (BLU); mean over the file's lines of this peptide [2] | normalised SPOT signal, Boehringer light units (BLU); mean over the file's lines of this peptide [3] | normalised SPOT signal, Boehringer light units (BLU); mean over the file's lines of this peptide [4] | normalised SPOT signal, Boehringer light units (BLU); mean over the file's lines of this peptide [5]
PPPPPVPAKLFGES [YNL271C 1244-1257] | 40.5 | 37.8 | 2930 | 82.1 | 62.5
PPEPATPSKKSLTT [YBR060C 169-182] | 23.8 | 26.2 | 41.3 | 46.1 | 66.6
PIQPQEPFRHNTTI [YNL085W 152-165] | 20.4 | 7.9 | 60.6 | 104 | 52.8
PPLPPIPTRDDMSN [YNL152W 329-342] | 124 | 37.5 | 2050 | 72.7 | 545
PNYPDSPPKVTFIS [YGL087C 66-79] | 12.5 | 76.3 | 87.1 | 68.6 | 260
PFLPKIPQKPGGVS [YLR164W 27-40] | 50.1 | 45.9 | 2200 | 80.5 | 173
PIMPTLPPRPYITI [YGL060W 537-550] | 5510 | 87.6 | 26100 | 31.6 | 24900
PNEPGAPSRLSFEN [YBL067C 285-298] | 52.4 | 71.5 | 34.7 | 104 | 258
PAFPEYPMRRDTLY [YMR058W 448-461] | 57.6 | 82.5 | 5040 | 3190 | 1930
PPVPKAPSRRSSSL [YER132C 943-956] | 1660 | 753 | 29400 | 1230 | 6150
PFLPVLPQKPGGVR [YDR178W 35-48] | 20 | 35.7 | 12700 | 49.9 | 338
PPPPPPPSRKSGTP [YDL146W 477-490] | 1520 | 50.2 | 6880 | 563 | 2480
PLIPDNPGRLLSSK [YEL023C 311-324] | 42.7 | 48.5 | 200 | 94.5 | 205
PMSPGPPSKKDSRH [YJL005W 495-508] | 138 | 147 | 996 | 127 | 178
PKEPRLPKRKVAVM [YPL212C 67-80] | 5510 | 28.3 | 38000 | 227 | 39200
PLPPIPPTKSKTSP [YHL007C 535-548] | 30.2 | 21 | 504 | 80.6 | 140
PLQPRPPVKPLSKQ [YGR084C 87-100] | 57.3 | 34.5 | 861 | 91.7 | 128
PNSPTPPLKSKVSR [YER164W 1337-1350] | 25 | 40.1 | 866 | 170 | 164
PFIPKFPSRESVES [YBR036C 302-315] | 506 | 70.4 | 2600 | 39.7 | 1410
PPPPPPPPKPPLND [YMR089C 156-169] | 36.6 | 58 | 1030 | 60 | 100
PIVPREPLRNEPTD [YPL255W 118-131] | 34500 | 33300 | 7410 | 628 | 5170
PKDPSSPQRDEILT [YBR271W 27-40] | 53.2 | 156 | 6.2 | 138 | 0
